Measurements taken from article PMC10167749, “The catalytic domains of Streptococcus mutans glucosyltransferases: a structural analysis” (Acta Crystallographica. Section F, Structural Biology …, 2023).

Molecular target: T1, catalytic domain of Streptococcus mutans GtfB (GtfB-CD) (Streptococcus mutans (UA159), UniProt P08987 191-1051)
T1 construct: Glucosyltransferase GtfB (GTF-I), Streptococcus mutans UA159, catalytic domain, residues 191-1051 (UniProt P08987); Cloned between NcoI and XhoI of pET-23d; also called GTF-I; source: E. coli BL21(DE3), pET-23d, purified (HisTrap FF, Mono Q, Superdex 200)
T1 sequence: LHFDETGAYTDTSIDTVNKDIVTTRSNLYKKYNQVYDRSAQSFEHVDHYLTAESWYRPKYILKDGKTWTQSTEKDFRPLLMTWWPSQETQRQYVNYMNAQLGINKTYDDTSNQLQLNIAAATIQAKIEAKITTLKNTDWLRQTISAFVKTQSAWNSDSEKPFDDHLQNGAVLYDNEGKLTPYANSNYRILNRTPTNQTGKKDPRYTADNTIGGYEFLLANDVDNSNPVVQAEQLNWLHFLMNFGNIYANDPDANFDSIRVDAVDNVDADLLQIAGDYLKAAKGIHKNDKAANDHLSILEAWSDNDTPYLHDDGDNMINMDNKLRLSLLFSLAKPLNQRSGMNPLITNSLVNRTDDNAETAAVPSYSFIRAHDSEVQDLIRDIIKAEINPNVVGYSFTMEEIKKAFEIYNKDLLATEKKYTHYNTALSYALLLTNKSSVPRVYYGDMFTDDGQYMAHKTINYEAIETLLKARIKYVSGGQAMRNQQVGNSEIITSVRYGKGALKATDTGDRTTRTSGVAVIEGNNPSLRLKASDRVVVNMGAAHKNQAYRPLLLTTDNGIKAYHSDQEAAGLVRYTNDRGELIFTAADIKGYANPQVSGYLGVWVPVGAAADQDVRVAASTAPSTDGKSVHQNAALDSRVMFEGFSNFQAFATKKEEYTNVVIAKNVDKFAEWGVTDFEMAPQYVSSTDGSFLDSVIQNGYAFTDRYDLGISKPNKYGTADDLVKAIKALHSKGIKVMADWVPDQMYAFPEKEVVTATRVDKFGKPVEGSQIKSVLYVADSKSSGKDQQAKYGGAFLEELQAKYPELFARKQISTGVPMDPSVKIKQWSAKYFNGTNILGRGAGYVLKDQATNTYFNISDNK
Experiment: SPR; Biacore T200; iSRCR1 immobilised on a CM5 chip by amine coupling; analyte GtfB-CD 2-8 uM in 20 mM HEPES pH 7.4, 150 mM NaCl, 1 mM CaCl2 at 20 ul/min; each concentration in triplicate; kinetic fitting
Conditions: both partners purified

B1: recombinant scavenger receptor cysteine-rich domain 1 of Gp340 expressed in insect cells (iSRCR1) (domain or fragment)
chain: not shown
notes: Gp340 (salivary agglutinin), scavenger receptor cysteine-rich (SRCR) domain 1; source: recombinant, expressed in insect cells
- Kd: 509 nM
